Results on eight molecules are retold here after US20180194851A1 (Pfizer, published 2018).

Substitutions are numbered along the chain they refer to.

One test has as its target T1, CD40 on 300.19 cells (UniProt P25942 21-277, limits assumed).
T1 construct: whole, on cells; also called TNFRSF5; 300.19 CD40
In words: FACS on 300.19 cells expressing CD40.

For another test, the target named is T2, OX-40 on 300.19 cells (UniProt P43489 29-277, limits assumed).
T2 construct: whole, on cells; also called CD134; TNFRSF4
T2 sequence (looked up): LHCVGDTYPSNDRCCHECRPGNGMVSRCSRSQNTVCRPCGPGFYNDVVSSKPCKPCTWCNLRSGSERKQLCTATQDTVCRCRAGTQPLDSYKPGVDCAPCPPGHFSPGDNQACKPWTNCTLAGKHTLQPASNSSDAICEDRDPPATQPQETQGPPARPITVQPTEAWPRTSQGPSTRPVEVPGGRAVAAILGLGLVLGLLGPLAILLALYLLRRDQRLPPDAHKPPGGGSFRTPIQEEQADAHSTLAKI
In words: FACS on 300.19 cells expressing OX-40.

A further test deals with T3, Hu41BB N&E.3 (human, UniProt Q07011 18-255).
T3 construct: Human-to-dog mutant of the human 4-1BB extracellular domain, expressed on transduced 300-19 cells
T3 chain: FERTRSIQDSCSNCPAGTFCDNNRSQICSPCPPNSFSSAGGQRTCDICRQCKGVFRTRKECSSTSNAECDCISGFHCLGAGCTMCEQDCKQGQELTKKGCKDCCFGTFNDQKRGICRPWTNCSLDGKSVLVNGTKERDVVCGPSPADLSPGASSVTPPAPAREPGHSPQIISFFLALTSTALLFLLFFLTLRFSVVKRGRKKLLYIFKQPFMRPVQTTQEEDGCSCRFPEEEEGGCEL
As to the kind of experiment: FACS, 100 nM antibody, transduced 300-19 cell pools. (A flow cytometer gives signals particle by particle.)

In the next test the target is T4, Hu41BB N&E.4 (human, UniProt Q07011 18-255).
T4 construct: Human-to-dog mutant of the human 4-1BB extracellular domain, expressed on transduced 300-19 cells
T4 chain: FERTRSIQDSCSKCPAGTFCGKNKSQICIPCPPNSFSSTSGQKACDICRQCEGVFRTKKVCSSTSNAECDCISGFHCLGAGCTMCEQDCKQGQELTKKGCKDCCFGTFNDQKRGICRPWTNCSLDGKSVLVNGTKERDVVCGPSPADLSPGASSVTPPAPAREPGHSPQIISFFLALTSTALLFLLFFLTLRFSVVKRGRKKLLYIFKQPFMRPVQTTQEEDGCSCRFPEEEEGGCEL
The test is described as above.

The target of test [1] is T5, Recombinant human 4-1BB/Fc Chimera (R&D Systems #838-4B) (human, UniProt Q07011 24-186).
T5 construct: Bought protein; also called Human 4-1BB IgG1Fc chimera; not shown: Factor Xa-cleavable junction, human IgG1 Fc and 6xHistidine tag of the bought chimera
In words: ELISA on coated human 4-1BB IgG1Fc chimera.

Test [2] deals with T6, human 4-1BB extracellular portion, amino acids 24-186 (Fc cleaved off with Factor Xa) (human, UniProt Q07011 24-186).
T6 construct: Made from the R&D Systems 4-1BB/Fc chimera by Factor Xa cleavage; also called recombinant human 4-1BB; the 4-1BB
In words: SPR (Biacore 3000), antibody amine-coupled, 4-1BB 24-186 as analyte, 25 C. Background: In SPR one partner is held on a chip, and binding of the other changes the refractive index at the surface.

For test [3], the target named is T5, Recombinant human 4-1BB/Fc Chimera (R&D …). In words: ligand competition ELISA, 4-1BB_IgG1Fc to plate-bound 4-1BBL (competitor 4-1BBL).
Test [4] has as its target T7, human 4-1BB on cells (human, UniProt Q07011 18-255).
T7 construct: Expressed on stably transfected HEK293/HEK293T cells, transduced 300-19 cells or PHA stimulated human PBMC; also called h41BB; hu4-1BB
In words: FACS on transfected cells.

The target of test [5] is T5, Recombinant human 4-1BB/Fc Chimera (R&D …). In words: ELISA on directly coated human 4-1BB/Fc, IgG1. In general terms: An ELISA detects its analyte on a solid surface through an enzyme-linked reagent.
For test [6], the target named is T7, human 4-1BB on cells. As to the kind of experiment: FACS on HEK293T cells expressing human 4-1BB, IgG1.
In another test the target is T8, Hu41BB N&E (human, UniProt Q07011 18-255).
T8 construct: Human-to-dog mutant of the human 4-1BB extracellular domain, expressed on transduced 300-19 cells
T8 chain: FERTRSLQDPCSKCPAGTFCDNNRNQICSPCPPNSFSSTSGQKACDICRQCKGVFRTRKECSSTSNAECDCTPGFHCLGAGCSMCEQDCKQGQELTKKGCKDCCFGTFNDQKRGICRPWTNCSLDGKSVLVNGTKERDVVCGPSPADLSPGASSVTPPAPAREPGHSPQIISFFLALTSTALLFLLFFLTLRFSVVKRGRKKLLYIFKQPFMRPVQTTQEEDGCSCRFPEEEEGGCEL
In words: FACS, 100 nM antibody, transduced 300-19 cell pools.

In another test the target is T9, Hu41BB N&E.1 (human, UniProt Q07011 18-255).
T9 construct: Human-to-dog mutant of the human 4-1BB extracellular domain, expressed on transduced 300-19 cells
T9 chain: T8 chain with D21G, N22K, R24K, S29I
The description is as above.

The next test has as its target T10, Hu41BB N&E.5 (human, UniProt Q07011 18-255).
T10 construct: Human-to-dog mutant of the human 4-1BB extracellular domain, expressed on transduced 300-19 cells; also called 4-1BB Mutant N&E.5
T10 chain: T8 chain with K13N, T39A, S40G, K43R, A44T, K98Q, C104R, R117Q, R137S, V139A
The test is described as above.

For the next test, the target named is T11, Hu41BB N&E.6 (human, UniProt Q07011 18-255).
T11 construct: Human-to-dog mutant of the human 4-1BB extracellular domain, expressed on transduced 300-19 cells
T11 chain: T8 chain with K13N, T39A, S40G, K43R, A44T, S144A, P145S, D147G, L148F, A152T
The description is as above.

The target in test [7] is T5, Recombinant human 4-1BB/Fc Chimera (R&D …). As to the kind of experiment: ELISA on directly coated human 4-1BB/Fc.
The target of test [8] is T7, human 4-1BB on cells. As to the kind of experiment: FACS on HEK293 cells expressing human 4-1BB.
Test [9] deals with T12, human 4-1BB (recombinant antigen, construct not stated) (human, UniProt Q07011 24-186).
T12 construct: It may be the 4-1BB/Fc chimera; also called CD137/HUMAN 4-1BB; unlabeled human 4-1BB
As to the kind of experiment: SPR (Biacore 3000), Fab analyte on amine-coupled human 4-1BB.

T1 sequence (P25942 21-277 limits assumed): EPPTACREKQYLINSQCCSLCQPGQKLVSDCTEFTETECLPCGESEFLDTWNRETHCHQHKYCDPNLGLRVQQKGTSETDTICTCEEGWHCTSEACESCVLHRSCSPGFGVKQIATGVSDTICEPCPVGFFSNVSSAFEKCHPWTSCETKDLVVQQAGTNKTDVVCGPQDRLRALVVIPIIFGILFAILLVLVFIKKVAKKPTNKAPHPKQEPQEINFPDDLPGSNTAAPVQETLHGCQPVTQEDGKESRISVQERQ

B1: MOR-6032 (IgG1) (antibody, V domains shown)
VH: QVQLVQSGAEVKKPGSSVKVSCKASGGTFNSYAISWVRQAPGQGLEWMGGIIPGFGTANYAQKFQGRVTITADESTSTAYMELSSLRSEDTAVYYCARKNEEDGGFDHWGQGTLVTVSS
VL: DIELTQPPSVSVAPGQTARISCSGDNLGDYYASWYQQKPGQAPVLVIYDDSNRPSGIPERFSGSNSGNTATLTISGTQAEDEADYYCQTWDGTLHFVFGGGTKLTVL
notes: Human IgG1 format, lambda light chain; also called 6032_G1
As for B1, the binding result in the test with CD40 on 300.19 cells is reported as “no binding (tested: 1000 nM)”; in the test with OX-40 on 300.19 cells it was “no binding (tested: 1000 nM)”; with Hu41BB N&E.3, “binds”.

B2: MOR-7483 (IgG1) (antibody, V domains shown)
VH: QVQLVQSGAEVKKPGESLKISCKGSGYSFSTYWISWVRQMPGKGLEWMGKIYPGDSYTNYSPSFQGQVTISADKSISTAYLQWSSLKASDTAMYYCARGYGIFDYWGQGTLVTVSS
VL: DIELTQPPSVSVAPGQTARISCSGDNIGDQYAHWYQQKPGQAPVVVIYQDKNRPSGIPERFSGSNSGNTATLTISGTQAEDEADYYCSTYTFVGFTTVFGGGTKLTVL
notes: Human IgG1 format, lambda light chain; also called 7483_G1
For B2, the binding result was “no binding (tested: 1000 nM)” with CD40 on 300.19 cells, “no binding (tested: 1000 nM)” in the test with OX-40 on 300.19 cells, “binds” with Hu41BB N&E.3 and “binds” with Hu41BB N&E.4.

B3: MOR-7480 (IgG2) (antibody, V domains shown)
VH: B2 VH
VL: DIELTQPPSVSVAPGQTARISCSGDNIGDQYAHWYQQKPGQAPVVVIYQDKNRPSGIPERFSGSNSGNTATLTISGTQAEDEADYYCATYTGFGSLAVFGGGTKLTVLG
Broadly, the EC50 is the concentration giving half of the maximal effect. As a reminder, the Kd is the concentration at which binding is half-saturated. For orientation: koff means the first-order rate constant of dissociation. The kon is the rate constant with which the complex forms. High values mean fast association, low ones slow association. Broadly, the IC50 is the concentration that gives 50% inhibition. As for B3, the EC50 in test [1] was 0.122 nM. For the same molecule, in test [2], the Kd came out at 0.57 nM, the koff is 0.00023 s⁻¹, the kon was determined as 450000 M⁻¹ s⁻¹ and the t1/2 is 50 min. For the same molecule, in [3], the “% max inhibition” value turned out to be 98% and the IC50 was found to be 0.125 nM.

B4: MOR-7480.2 (IgG1) (antibody, V domains shown)
VH: B2 VH with Q1E, K19R
VL: SYELTQPPSVSVSPGQTASITCSGDNIGDQYAHWYQQKPGQSPVVVIYQDKNRPSGIPERFSGSNSGNTATLTISGTQAMDEADYYCATYTGFGSLAVFGGGTKLTVL
notes: Human IgG1 format
With B4, the binding result with Hu41BB N&E.3 and with Hu41BB N&E.4 was “binds” in each case.

B5: MOR-7483.1 (IgG1) (antibody, V domains shown)
VH: B2 VH with Q1E, K19R
VL: B4 VL with V45L, A88S, G92F, F93V, S95F, L96T, A97T
notes: Germlined version of MOR-7483, human IgG1 format
For B5, in test [2], the Kd was found to be 28 nM, the off-rate constant (koff) stood at 0.022 s⁻¹ and the kon stood at 800000 M⁻¹ s⁻¹.

B6: MOR-7483 (IgG2) (antibody, V domains shown)
VH: B2 VH
VL: B3 VL with A88S, G92F, F93V, S95F, L96T, A97T
notes: also called 7483_G2
Regarding B6, the binding result in the test with Hu41BB N&E.3 and with Hu41BB N&E.4 was “binds” each time.

B7: MOR-7361 (IgG1) (antibody, V domains shown)
VH: QVQLVESGGGLVQPGGSLRLSCAASGFTFSDYYMHWVRQAPGKGLEWVSVISGSGSNTYYADSVKGRFTISRDNSKNTLYLQMNSLRAEDTAVYYCARLYAQFEGDFWGQGTLVTVSS
VL: DIELTQPPSVSVAPGQTARISCSGDNIGSKYVSWYQQKPGQAPVLVIYSDSERPSGIPERFSGSNSGNTATLTISGTQAEDEADYYCQSWDGSISRVFGGGTKLTVL
notes: Human IgG1 format, lambda light chain; also called 7361_G1
Take B7: the “fold selectivity for 4-1BB versus OX-40 and CD40” value with human 4-1BB on cells [4] is at least 100 fold. The binding result with CD40 on 300.19 cells is listed as “no binding (tested: 1000 nM)”; with OX-40 on 300.19 cells it was “no binding (tested: 1000 nM)”; with Hu41BB N&E it was “binds”; with Hu41BB N&E.1, “binds”; with Hu41BB N&E.5, “binds”; with Hu41BB N&E.6 it was “binds”. Further, the EC50 in test [1] worked out at 0.091 nM; in test [5] it was 0.3 nM; with human 4-1BB on cells [6], 0.8 nM. Also, the “% max inhibition” value in test [3] was determined as 100%. Also, in [3], the half-maximal inhibitory concentration (IC50) is 0.172 nM.

B8: Fab-7361 (Fab, V domains shown)
VH: B7 VH
VL: B7 VL
Take B8: the EC50 in test [7] came to 0.6 nM; with human 4-1BB on cells [8], 105 nM. Also, in [9], the Kd worked out at 118 nM.
